# Data taken from patent US20060134122A1, “Peptides of syndecan-1 for inhibition of cancer” (priority 2004, published 2006).
# Legend:
# [1] = system: human microvascular endothelial cells (HMECs); assay: Apoptosis of serum-starved HMEC; format: cell-based; details: for cell death / protection from apoptosis, agent alone: VEGF 100 ng/ml, FGF 100 ng/ml, hScd-1ED 30 ug/ml
# Experimental: FIGS. 17A-B—Competition with soluble Sdc-1 ectodomain causes enhanced apoptosis of human microvascular endothelial cells (HMECs) in the presence of FGF. (FIG. 17A) HMEC-1 cells were plated overnight on gelatin, then starved for 24 hr to induce the intrinsic pathway of apoptosis. Apoptotic cells were easily observed by DIC microscopy. Examples of apoptotic cells are denoted by black arrows, living cells by red arrows. Cells were treated with 100 ng/ml VEGF, 100 ng/ml FGF, FGF+30 ug/ml hScd-1ED or hScd-1ED alone. […] (FIG. 17B) Quantification of % protection from apoptosis by each treatment. […] VEGF has no effect on this pathway, as it affects the extrinsic pathway of apoptosis which is not induced by serum starvation.
# Finally, the inventors performed used human microvascular endothelial cells (HMECs), which also express Sdc-1, as well as the αvβ3 and αvβ5 integrins, to test the theory that endothelial cells undergoing angiogenesis in response to fibroblast growth factor, a common angiogenic agent, will enter apoptosis and die unless the FGF signal is accompanied by a coordinate signal from the αvβ3 integrin. The inventors hypothesis was that recombinant ectodomain of Sdc-1 would block the signal from the αvβ3 integrin and induce apoptosis in the presence of FGF. HMEC cells grown in low serum conditions spontaneously enter apoptosis. […] In fact, treatment with FGF together with the soluble ectodomain protein induced apoptosis beyond that of the low serum condition alone (FIGS. 17A-B).
# B82L fibroblasts = assay: B82L cell attachment and spreading; format: cell-based, mouse
# Text: FIGS. 11A-F—Downregulation of mouse Sdc-1 expression by siRNA blocks αvβ5-dependent cell attachment and spreading on VN. FACS analysis for (FIG. 11A) mouse syndecan-1 (mAb 281.2), (FIG. 11B) αv integrin subunit (mAb H9.2B8), (FIG. 11C) mouse Syndecan-4 (mAb KY8.2), (FIG. 11D) human syndecan-1 (mAb B-B4) and (FIG. 11E) FcR^ecto-hS1 chimera (FITC-conjugated hIgG) expression against isotype IgG controls (red-fill) in vector^NEO (FIGS. 11A-C), human syndecan-1 (FIG. 11D) and FcR^ecto-hS1 (FIG. 11E) expressing B82L cells 48 h after transfection with either 600 nM control (Control) or mouse syndecan-1-specific siRNA (siRNA). (FIG. 11F) B82L^NEO empty vector-transfected control cells and B82L cells expressing human syndecan-1 or the FcR^ecto-hS1 chimera were transfected with control or mouse syndecan-1-specific siRNA and seeded on wells coated with either 5 μg/mL VN alone or a mixed substratum of VN plus 60 μg/mL of antibody directed against mouse syndecan-1 (281.2), human syndecan-1 (B-B4) or the FcR^ecto-hS1 chimera (hIgG). Cells were incubated at 37° C. for 2 h, fixed, and stained with rhodamine-conjugated phalloidin.
# FIGS. 12A-B—B82L cell spreading on VN is blocked by recombinant Scd-1ED. (FIG. 12A) B82L fibroblasts were plated on 5 μg/mL VN in the absence of other treatment, or in the presence of 30 μM GST, 1-30 μM GST-mS1ED or 30 μM GST-mS4ED (inset), then fixed and stained with rhodamine-phalloidin for visualization. (FIG. 12B) Quantification of cell adhesion in triplicate samples (±S.E.) plated either with no additions, or concentrations of GST-mS1ED ranging from 0-30 μM. […]
# The failure of NEO cells to engage the mixed substratum is indicative of the efficient blockade of mouse Sdc-1 expression by the siRNA. It is unlikely that the mouse Sdc-1-siRNA treatment has any non-specific cellular effects since spreading on VN is specifically rescued by the expression of full-length human Sdc-1 (hS1, FIG. 11F). Spreading of the B82L-hS1 cells is indistinguishable from parental cells. However, spreading on VN is not recovered in cells expressing the FcR^ecto-hS1 chimera—a construct in which the syndecan's ectodomain is replaced by the ectodomain of the human Fcγ receptor Ia (FcR^ecto-hS1)—regardless of whether the cells are plated on VN alone, or VN supplemented with 60 μg/mL of hIgG to engage the FcR^ecto-hS1 construct.
# Recombinant Sdc-1 ectodomain competitively blocks αvβ5 integin activity. To test whether soluble Sdc-1 ectodomain will compete with the syndecan activation of the αvβ5 integrin, B82L cells were plated on 5 μg/mL VN in the presence of a recombinant GST fusion protein containing either the ectodomain of mouse Sdc-1 (GST-mS1ED) or human Sdc-1 (GST-hS1ED; data not shown).
# [2] = system: mouse aortic endothelial cells; assay: Mouse aortic endothelial cell spreading on VN; format: cell-based
# Text: Secondly, they targeted Sdc-1 expression cells using siRNA.
molecule,measurement,setting,value
VEGF [reference compound],"cell death / protection from apoptosis, agent alone",[1]; starved 24 hr,no effect
"GST-hS1ED: recombinant GST fusion protein containing the ectodomain of human Sdc-1 (protein, left off: a dimerising Fc or GST) QIVATNLPPEDQDGSGDDSDNFSGSGAGALQDITLSQQTPSTWKDTQLLTAIPTSPEPTGLEATAASTSTLPAGEGPKEGEAVVLPEVEPGLTAREQEATPRPRETTQLPTTHQASTTTATTAQEPATSHPHRDMQPGHHETSTPAGPSQADLHTPHTEDGGPSATERAAEDGASSQLPAAEGSGEQDFTFETSGENTAVVAVEPDRRNQSPVDQGATGASQGLLDRKEVLG",cell attachment and spreading on VN,"B82L fibroblasts; 5 μg/mL VN, S1ED 1-30 μM, GST and GST-mS4ED 30 μM",increasing blockade
same,lowest concentration tested at which competition occurs,B82L fibroblasts; cells plated on 5 μg/mL VN,1 µM
"hScd-1ED: soluble human Sdc-1 ectodomain used as competitor on HMEC cells (protein, UniProt P18827 23-254, looked up, extracellular domain) extracellular domain: QIVATNLPPEDQDGSGDDSDNFSGSGAGALQDITLSQQTPSTWKDTQLLTAIPTSPEPTGLEATAASTSTLPAGEGPKEGEAVVLPEVEPGLTAREQEATPRPRETTQLPTTHLASTTTATTAQEPATSHPHRDMQPGHHETSTPAGPSQADLHTPHTEDGGPSATERAAEDGASSQLPAAEGSGEQDFTFETSGENTAVVAVEPDRRNQSPVDQGATGASQGLLDRKEVLG",cell death in 15% serum,"[1]; control cells in 15% serum, not shown",no effect
same,apoptosis in the presence of FGF,"[1]; starved 24 hr, 100 ng/ml FGF + 30 ug/ml hScd-1ED",dramatically increases apoptosis
same,"cell death / protection from apoptosis, agent alone",[1]; starved 24 hr,protective effect
Sdc-1 ectodomain: recombinant Sdc-1 ectodomain competitor; species and fusion not stated at this place (protein) QIVATNLPPEDQDGSGDDSDNFSGSGAGALQDITLSQQTPSTWKDTQLLTAIPTSPEPTGLEATAASTSTLPAGEGPKEGEAVVLPEVEPGLTAREQEATPRPRETTQLPTTHQASTTTATTAQEPATSHPHRDMQPGHHETSTPAGPSQADLHTPHTEDGGPSATERAAEDGASSQLPAAEGSGEQDFTFETSGENTAVVAVEPDRRNQSPVDQGATGASQGLLDRKEVLG,competitor concentration at which spreading on VN is blocked,[2],1 µM
